In assay [1] the target is T1, human IL2Rα Fc fusion protein (human, UniProt P01589 22-213, limits assumed).
T1 construct: also called CD25; not shown: Fc part
T1 sequence (looked up): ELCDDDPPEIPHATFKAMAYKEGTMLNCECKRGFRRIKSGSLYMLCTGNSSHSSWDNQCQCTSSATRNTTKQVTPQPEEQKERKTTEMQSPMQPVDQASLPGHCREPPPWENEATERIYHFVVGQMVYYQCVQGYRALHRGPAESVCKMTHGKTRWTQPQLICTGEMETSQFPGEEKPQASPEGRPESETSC
Description: ELISA, single concentration, anti-flag detection, E. coli-produced clone. Here is the method: (§1) Supernatants containing engineered IL2 mutants were assessed with sandwich ELISA assay to screen for IL2Rα binding. Briefly, 96-well plate was immobilized with human Fc and human IL2Rα, respectively, at a final concentration of 2 μg/mL in 1× PBS in total volume of 50 μL per well. The plate was incubated overnight at 4° C. followed by blocking with 200 μL of superblock per well for 1 hour. 100 μl of supernatant was added to both Fc and IL2Rα immobilized wells and incubated for 1 hour with shaking. The engineered IL2 mutant binding was detected by adding 50 μL of anti-Flag HRP diluted at 1:5000 in 1× PBST. In between each step, the plate was washed three times with 1× PBST in a plate washer. The plate was then developed with 50 μL of TMB substrate for five minutes and stopped by adding 50 μL of 2N sulfuric acid. The plate was read at OD450 nm using a Biotek plate reader and the binding and selectivity was analyzed.
as §1, with “Single clones were next screened for IL2Rβ binding. IL2Rβ binding screening ELISA was developed for the identification of individual” for “Supernatants containing”, “mutant.” for “mutants were assessed with sandwich ELISA assay to screen for IL2Rα binding.”, “IL2Rβ,” for “IL2Rα,”, “IL2Rβ” for “IL2Rα”
(§2) To further triage, the engineered IL2 clones with unique sequences were produced in E. coli. In short, the glycerol stock of each engineered agonist clone was inoculated into TB medium for overnight growth. The next day, cells from the overnight culture were inoculated into TB medium and grown to a cell density of OD₆₀₀ between 0.6-0.8. IPTG was added to a final concentration of 1 mM to induce the expression during culture at 30° C. overnight. The supernatant was collected by centrifugation.
A general note: In an ELISA, binding on a coated surface is turned into a signal by an enzyme label.

The target in assay [2] is T2, human IL2Rβ Fc fusion protein (human, UniProt P14784 27-239).
T2 construct: also called ILR2β; CD122; not shown: Fc part
T2 sequence (looked up): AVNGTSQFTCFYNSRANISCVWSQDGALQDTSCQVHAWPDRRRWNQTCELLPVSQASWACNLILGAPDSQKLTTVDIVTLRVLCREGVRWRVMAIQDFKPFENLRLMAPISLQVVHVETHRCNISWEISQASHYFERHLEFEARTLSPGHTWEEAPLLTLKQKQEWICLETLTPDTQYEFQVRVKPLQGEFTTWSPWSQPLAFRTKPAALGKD
The assay is described as above. Here is the method:
as §1
as §1, with “Single clones were next screened for IL2Rβ binding. IL2Rβ binding screening ELISA was developed for the identification of individual” for “Supernatants containing”, “mutant.” for “mutants were assessed with sandwich ELISA assay to screen for IL2Rα binding.”, “IL2Rβ,” for “IL2Rα,”, “IL2Rβ” for “IL2Rα”
as §2

Assay [3] has as its target T1, human IL2Rα Fc fusion protein. Description: SPR (Biacore T200), receptor captured on Protein A chip, IL2 at 100 nM and 20 nM. Here is the method: The assay was run with Biacore T200 control software version 2.0. For each cycle, 1 μg/mL of human IL2Rβ or IL2Rα was captured for 60 seconds at flow rate of 10 μL/min on flow cell 2 in 1× HBSP buffer on Protein A sensor chip. 100 nM and 20 nM of HIS tag purified engineered IL2 mutant was injected onto both reference flow cell 1 and IL2Rβ or IL2Rα captured flow cell 2 for 150 seconds at flow rate of 30 μL/min followed by washing for 300 seconds. The flow cells were then regenerated with Glycine pH 2 for 60 seconds at a flow rate of 30 μL/mins. The kinetics data was analyzed with Biacore T200 evaluation software 3000. The specific binding response unit was derived from subtraction of binding to reference flow cell 1 from target flow cell 2.
A general note: Surface plasmon resonance follows binding to a sensor surface in real time, without labels.

The target is the same in assay [4]. Description: ELISA on coated receptor-Fc, anti-His detection, single point 10 µM. Here is the method: (§3) Back-mutations were characterized for their binding activities to IL2Rβ and IL2Rα receptors by ELISA. Briefly, 384 well plate was immobilized with human IL2Rα and IL2Rβ Fc fusion proteins at a final concentration of 2 μg/mL in 1× PBS in total volume of 25 μL per well. The plate was incubated overnight at 4° C. and blocked with 80 μL of superblock per well for 1 hour. […] The IL2 mutant binding was detected by adding 25 μL of anti-His HRP diluted at 1:5000 in 1× PBST. In between each step, the plate was washed three times with 1× PBST using a plate washer. […] The plate was then developed with 25 μL of TMB substrate for five minutes and stopped by adding 25 μl of 2N sulfuric acid. The plate was read at OD450 nm Biotek plate reader (Table 6) and the data was analyzed with Prism 8.1 software to generate bar graph (FIG. 5).

The target in assay [5] is T2, human IL2Rβ Fc fusion protein. Described as above. As for the experimental part:
as §3

B1: EP573 (clone 2021EP16-E02), E. coli-produced (ligand)
chain: APASSSTKKTQLQLEHLLLDLQMILNGINNYKNPKLTRMLTFKFYMPKKATELKHLQCLEEELKPLEEVLNLAQSKNFHLNRTDLVGDVNATIKALKGSETTFMCEYADETATIVEFLNRWITFSQSIISTLT
As usually defined, the Kd is the concentration at which binding is half-saturated. Low readings indicate higher affinity, high ones lower affinity. As for B1, the OD450 nm in assay [1] was determined as 1.58 OD450; in assay [2] it was 0.07 OD450. For the same molecule, the Kd in assay [3] came to 0.0551 µM.

B2: EP585 (clone 2021EP16-C03), E. coli-produced (ligand)
chain: APASSSTKKTQLQLEHLLLDLQMILNGINNYKNPKLTRMLTFKFYMPKKATELKHLQCLEEELKPLEEVLNLAQSKNFHLSPPDLIANMAVYFVELKGSETTFMCEYADETATIVEFLNRWITFSQSIISTLT
In the case of B2, the OD450 nm in assay [1] was 0.614 OD450; in assay [2], 0.583 OD450. The same molecule came in with a Kd in assay [3] of 4.26 µM.

B3: EP577 (clone 2021EP16-E05), E. coli-produced (ligand)
chain: APASSSTKKTQLQLEHLLLDLQMILNGINNYKNPKLTRMLTFKFYMPKKATELKHLQCLEEELKPLEEVLNLAQSKNFHLKAIAFISDLKVRVLDLKGSETTFMCEYADETATIVEFLNRWITFSQSIISTLT
Regarding B3, the OD450 nm was 0.771 OD450 in assay [1] and 0.149 OD450 in assay [2]. This molecule also gave a Kd in assay [3] of 0.956 µM.

B4: EP661, EP575 back-mutation clone (ligand)
chain: APASSSTKKTQLQLEHLLLDLQMILNGINNYKNPLLTDMLTRKFYMPKKATELKHLQCLEEELKPLEEVLNLAQSKNFHLRPKGLISNISNIVLALKGSETTFMCEYADETATIVEFLNRWITFSQSIISTLT
notes: Mammalian-produced, His-tagged
Regarding B4, the “Average OD (450 nm)” value came out at 0.11 OD450 in assay [4] and 0.501 OD450 in assay [5].

B5: EP576 (clone 2021EP21-C10), E. coli-produced (ligand)
chain: APASSSTKKTQLQLEHLLLDLQMILNGINNYKNPKLTRMLTFKFYMPKKATELKHLQCLEEELKPLEEVLNLAQSKNFHLLPRNKISKTKVMVHELKGSETTFMCEYADETATIVEFLNRWITFSQSIISTLT
For B5, the figures for the OD450 nm in assay [1] and in assay [2] were 0.361 OD450 and 1.12 OD450, respectively. In assay [3], this molecule had a Kd of 0.143 µM.

B6: EP582 (clone 2021EP16-G10), E. coli-produced (ligand)
chain: APASSSTKKTQLQLEHLLLDLQMILNGINNYKNPKLTRMLTFKFYMPKKATELKHLQCLEEELKPLEEVLNLAQSKNFHLTHRDVISDVNVLALELKGSETTFMCEYADETATIVEFLNRWITFSQSIISTLT
In the case of B6, the OD450 nm turned out to be 1.08 OD450 in assay [1] and 0.337 OD450 in assay [2]. This molecule gave a dissociation constant Kd in assay [3] of 0.151 µM.

B7: EP662, EP575 back-mutation clone (ligand)
chain: APASSSTKKTQLQLEHLLLDLQMILNGINNYKNPLLTDMLTRKFYMPKKATELKHLQCLEEELKPLEEVLNLAQSKNFHLRPKGLISDINNIVLALKGSETTFMCEYADETATIVEFLNRWITFSQSIISTLT
notes: as for B4
As for B7, the “Average OD (450 nm)” value in assay [4] and in assay [5] was 0.083 OD450 each time.

B8: EP575 (clone 2021EP16-D09), E. coli-produced (ligand)
chain: APASSSTKKTQLQLEHLLLDLQMILNGINNYKNPKLTRMLTFKFYMPKKATELKHLQCLEEELKPLEEVLNLAQSKNFHLRNKGILGDISNIVLALKGSETTFMCEYADETATIVEFLNRWITFSQSIISTLT
Turning to B8, the OD450 nm in assay [1] was determined as 1.25 OD450; in assay [2], 0.057 OD450. In assay [3], this molecule had a Kd of 0.0983 µM.

B9: EP658, EP575 back-mutation clone (ligand)
chain: APASSSTKKTQLQLEHLLLDLQMILNGINNYKNPLLTDMLTRKFYMPKKATELKHLQCLEEELKPLEEVLNLAQSKNFHLRPRGLISDISNIVLALKGSETTFMCEYADETATIVEFLNRWITFSQSIISTLT
notes: as for B4
For the molecule B9, the “Average OD (450 nm)” value worked out at 0.12 OD450 in assay [4] and 0.87 OD450 in assay [5].

B10: EP581 (clone 2021EP16-C10), E. coli-produced (ligand)
chain: APASSSTKKTQLQLEHLLLDLQMILNGINNYKNPKLTRMLTFKFYMPKKATELKHLQCLEEELKPLEEVLNLAQSKNFHLRSREVVSRIDAIILELKGSETTFMCEYADETATIVEFLNRWITFSQSIISTLT
As for B10, the OD450 nm was determined as 0.88 OD450 in assay [1] and 0.127 OD450 in assay [2]. Moreover, in assay [3], the Kd was determined as 0.106 µM.

For the origin of these results see patent publication US20250326813A1 (ELPIS BIOPHARMACEUTICALS, published 2025).
